In patent publication US20150118260A1 (GENERAL HOSPITAL, published 2015):

How the values were obtained:
[1] = target: T1, porcine CD80 on the porcine CD80-expressing B-cell lymphoma cell line LCL13271-5E4 (porcine); assay: flow cytometry on LCL13271-5E4 cells, MFI against concentration of biotinylated protein, non-linear least-squares fit
T1 construct: whole, on cells; The cell line was picked as CD80-expressing by staining with hamster anti-mouse CD80 mAb 16-10A1; CD86 on these cells is not addressed; also called LC13271-5E4

[2] = target: T2, human CD80 on the human CD80-expressing leukemia cell line THP-1 (human, UniProt P33681 35-288); assay: flow cytometry with biotinylated soluble porcine CTLA-4 on THP-1 cells
T2 construct: whole, on cells
T2 sequence (looked up): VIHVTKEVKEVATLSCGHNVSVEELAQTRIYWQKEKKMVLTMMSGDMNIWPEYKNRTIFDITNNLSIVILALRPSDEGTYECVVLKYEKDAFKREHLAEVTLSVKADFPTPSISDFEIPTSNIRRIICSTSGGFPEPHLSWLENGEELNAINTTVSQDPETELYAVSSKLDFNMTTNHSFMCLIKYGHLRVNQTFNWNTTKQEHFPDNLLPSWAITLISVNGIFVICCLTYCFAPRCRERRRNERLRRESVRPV

B1: glycosylated soluble porcine CTLA-4 carrying 6xHis tag in the C-terminus (aa 38-161, 124 aa + 6xHis) (receptor)
chain: MHVAQPAVVLANSRGVASFVCEYGSAGKAAEVRVTVLRRAGSQMTEVCAATYTVEDELTFLDDSTCTGTSTENKVNLTIQGLRAVDTGLYICKVELLYPPPYYVGMGNGTQIYVIDPEPCPDSDHHHHHH
modifications: N-glycosylated completely or partially (Pichia pastoris); labeled with Sulfo-NHS biotin in the direct binding and KD assays, non-biotinylated in the blocking assay
notes: Expressed in Pichia pastoris X33; The entry includes the 6xHis tag; also called pCTLA-4-Gly; pCTLA4-6xHis
Kd [1]: 0.013 µM | binding result [2]: no binding

B2: non-N-glycosylated soluble porcine CTLA-4 carrying 6xHis tag (aa 38-161, 124 aa + 6xHis; N76A, N108A) (receptor)
chain: MHVAQPAVVLANSRGVASFVCEYGSAGKAAEVRVTVLRRAGSQMTEVCAATYTVEDELTFLDDSTCTGTSTENKVALTIQGLRAVDTGLYICKVELLYPPPYYVGMGAGTQIYVIDPEPCPDSDHHHHHH
modifications: labeled with Sulfo-NHS biotin in the direct binding and KD assays, non-biotinylated in the blocking assay
notes: also called pCTLA-4-Non-N-Gly; non-N-glycosylated porcine soluble CTLA-4
Kd [1]: 0.013 µM | binding result [2]: no binding
